Measurements as given in patent US20180334496A1 (KODIAK SCIENCES, published 2018).
Residue numbers refer to the chain shown, from its start.

Target: T1, human Complement Factor D (CFD), purified from human serum (human, UniProt P00746 26-253)
T1 construct: serum purified (CompTech A136); also called serum purified CFD; hCFD-Comptech
Experiment: SPR MX96, mAbs amine-coupled, CFD injected

T1 sequence (P00746 26-253): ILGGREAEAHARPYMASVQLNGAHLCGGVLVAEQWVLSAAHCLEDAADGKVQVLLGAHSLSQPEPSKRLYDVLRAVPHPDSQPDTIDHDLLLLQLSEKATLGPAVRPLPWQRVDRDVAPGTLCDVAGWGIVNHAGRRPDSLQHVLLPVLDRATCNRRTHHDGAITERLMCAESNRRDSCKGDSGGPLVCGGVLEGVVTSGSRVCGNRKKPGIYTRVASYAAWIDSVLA

B1: KCD019 (antibody, V domains shown)
VH: QVQLQQSGAELARPGASVKMSCKASGYTFATYTIHWVKQRPGQGLEWIGYLNLRNDYTHYNQKFRDKAALTADKSSSTAYMQLSSLTSEDSAVYNCAFRLGNDRQGWYFDVWGAGTTVTVSS
VL: DIVMTQAHRFMSTSVGDRVIISCKASQDVGTAVAWYQQTPGQSPKILIYWTSTRHTGVPDRFTGSRSGTDFTLTISNVQSEDLADYFCQQYTTYPLTFGGGTKLEIK
B1 showed a Kd of 7.24 nM.

B2: KCD122 (antibody, V domains shown)
VH: EVQLQQSGPELVKPGASVKISCKASGYTFTDYYKNWMRQRHGESLEWIGDINPNNGDANYNQKFKGKATLTVDKSSSTAYMELRSLTSEDSAVYFCAREGPSFAYWGHGTLVTVSA
VL: DVLMTQTPLSLPVSLGDQASISCRSSQTIVHSNGDTYLEWYLQKPGQSPNLLIYKVSNRFSGVPDRFSGSGSGTDFTLKISRVEAEDLGVYYCFQGSHVPPTFGGGTKLEIK
Binder B2 has a Kd of 1.44 nM.

B3: KCD118 (antibody, V domains shown)
VH: B2 VH with S25F, N55S, F95Y
VL: B2 VL with V90I
B3 gave a Kd of 0.757 nM.

B4: KCD123 (antibody, V domains shown)
VH: B2 VH with Q3H, Y32F, D57G, A58T, F95Y, H108Q
VL: B2 VL
B4 showed a Kd of 2.77 nM.

B5: KCD121 (antibody, V domains shown)
VH: B2 VH with A58T, N59S, K65R, Y80F, F95Y, H108Q
VL: B2 VL with S26N, K79R
B5 was tested, and the Kd was 1.8 nM.

B6: KCD003 (antibody, V domains shown)
VH: EVQLQQSRPELVKPGASVKIFCKASGYTFTDYYMNWMRQRHGETLEWIGDINPNNGDPSYNQKFKDKATLTVDKSSSTASMELRSLTSDDSAVYYCAREGPSFAYWGQGTLVTVSA
VL: B2 VL with D17E
Work on B6 yielded a Kd of 1.05 nM.

B7: KCD050 (antibody, V domains shown)
VH: QVQLKESGPGLVAPSQSLSITCTVSGFSLNSYGVQWVRQPPGQGLEWLVVIWRDGTITYNSALKSRLSINKDNSKSQVFLKMNSLQTDDTAMYYCGRTSHYGNFNYYVMDYWGQGTAVTVSS
VL: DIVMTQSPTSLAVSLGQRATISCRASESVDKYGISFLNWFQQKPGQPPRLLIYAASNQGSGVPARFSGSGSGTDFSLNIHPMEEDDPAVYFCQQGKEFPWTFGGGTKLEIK
For B7, the Kd was 1.96 nM.

B8: KCD052 (antibody, V domains shown)
VH: B7 VH with V49G, T56S, N70R, F104Y
VL: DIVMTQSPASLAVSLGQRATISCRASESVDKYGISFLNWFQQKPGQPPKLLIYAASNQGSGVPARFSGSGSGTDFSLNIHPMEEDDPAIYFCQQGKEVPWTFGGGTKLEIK
Work on B8 yielded a Kd of 3.07 nM.

B9: KCD220 (antibody, V domains shown)
VH: QVQLQQSGAELMEPGASVKLSCKATGYTFTGYWIEWVKQRPGHGLEWIGETLPGSDSNNYNEKFKGKATFTADTSSNTAYMQLSSLTTEDSAIYYCARDYSNYWYFDVWGTGTTVTVSS
VL: DIQMTQTTSSLSASLGDRVTISCRASQDISNYLNWYQQKPDGTVKLLIYYTSNLHSGVPSRFSGSGSGTDYSLTISNLEQEDIATYFCQQDSKHRTFGGGTKLEIK
Binder B9 has a Kd of 0.0535 nM.

B10: KCD002 (antibody, V domains shown)
VH: EVKLVESEGGLVQPGSSMKLSCTASGFTFSDYYMAWVRQVPEKGLEWVGNINYDGSSTYYLDSLKSRFIISRDSAKNILYLQMSSLKSEDTATYFCARGEDFYLYAMDYWGQGTSVTVSS
VL: DIQMTQSPASLSASVGETVTITCRASENIHSYLAWYQQKQGKSPQLIVYNTKTLAEGVPSRFSGSGSGTQFSLKINSLQPEDFGSYYCQHHYGIPPTFGGGTKLEIK
B10 was tested, and the Kd was 0.132 nM.

B11: KCD014 (antibody, V domains shown)
VH: EVKLVESGGGLVQPGGSLKLSCAASGFTFSSYIMSWVRQTPEKRLEWVAYITNGGGNTYYPDTIKGRFTISRDNAKNTLYLQMSSLKSEDTAMYYCARHGTGYAMDYWGQGTSVTVSS
VL: EIVLTQSPTTMAASPGEKITITCSASSSISSNYLHWYQQKPGFSPKLLIYRTSNLASGVPARFSGSGSGTSYSLTIGTMEAEDVATYYCQQGSSIPLTFGAGTKLELK
In the case of B11, the Kd is reported as 21.8 nM.

B12: KCD038 (antibody, V domains shown)
VH: EVQLQQSGPELVKPGTSMKISCKASGYSFADYTMNWVKQSHGKSLEWIGLINPYNGGTSYNQKFMGKATLTVDKSSSTAYMELLSLTSEDSAVYYCARWGTYSHNYDYAMDYWGQGTSVTVSS
VL: DVVMTQTPLSLPVSLGDQASISCRSSQSLVHSNGNTYLYWYFQKPGQSPKFLIYKVSNRFSGISDRFSGSGSGTDFTLKISRVEAEDLGVYFCSQSTHVPPFTFGSGTKLEIK
Binder B12 has a Kd of 37.2 nM.

B13: KCD039 (antibody, V domains shown)
VH: B12 VH with L11M, T16A, M34L, A97T
VL: B12 VL with P12S, F42L, F51L, S64T
B13 gave a Kd of 52.5 nM.

B14: KCD133 (antibody, V domains shown)
VH: EVQLVESGGGLLQPKGSLKLSCAASGFTFNTYAMNWVRQAPGKGLEWVARIRSKSSNYATYYADSVKDRFTISRDDSQSMFYLEMNNLKTEDTAMYYCVRDRGYYYVMDYWGQGTSVTVSS
VL: DIVLTQSPASLAVSLGQRATISCRASESVEYYGTSLMQWYQQKPGQPPKLLINAASNVESGVPARFSGSGSGTDFSLNIHPVEEDDIAMYFCQQSRKVPWTFGGGTKLEIK
With B14 the Kd was 11.5 nM.

B15: KCD008 (antibody, V domains shown)
VH: EVQLQQSGPELVKAGASVKMSCTASGFNIKDTYMHWVKQRPEQGLAWIGRIDPANGNIKYDPKFQGKATITADTSSNTAYLQLSSLTSDDTAVYYCTSAMDYWGQGTSVTVSS
VL: QIVLTQSPEIMSASPGEKVTMTCSARSSVSYMYWYQQKPGSSPRLLIYDTSNLASGVPVRFSGSGSGTSYSLTISRMETEDAATYYCQQWSTYPFTFGSGTKLEIK
Binder B15 has a Kd of 4.38 nM.

B16: KCD040 (antibody, V domains shown)
VH: EVQLQQSGAELVKPGASVKLSCTASDFNIKDTYMHWVMQRPEQGLEWIGKIDPANGNTEFDPKFQGKATITADTSSNTAYLQLTSLTSEDTAVYYCTRAMDYWGQGTSVTVSS
VL: B15 VL with E9A, R26G, L45V, T79A, T92N, F95Y, S99G
Work on B16 yielded a Kd of 1.93 nM.

B17: KCD013 (antibody, V domains shown)
VH: EVQLQQSGAELVKPGASVKLSCTASGFKIKDTYMHWVKERPDQGLEWIGRIDPANGNTKYDPKFQGKATITADTSSNTAYLQLSSLTSEDTAVYYCANAMDYWGQGTSVTVSS
VL: B15 VL with V3I, E9A, R26S, Y31N, T68A, T79A, T92S, F95W, S99G
B17 gave a Kd of 7.32 nM.

B18: KCD214 (antibody, V domains shown)
VH: EVQLQQSVAEFVRPGASVKLSCTASGFNIKNTYMHWVKQRPEQGLEWIGRIDPANGNTEYAPKFQGKATITADTSSNTAYLQLSSLTSEDTAIYYCALYDYDGYWGQGTTLTVSS
VL: EIVLTQSPALMAASPGEKVTITCRVSSSISSSSLHWYQQKSGTSPKPWIYGTSNLASGVPVRFSGSRSGTSYSLTISSMEAEDAATYYCQQWSDYPWTFGGGTKLEIK
Binder B18 has a Kd of 1.56 nM.

B19: KCD208 (antibody, V domains shown)
VH: B18 VH with F11L, A24V, N57D, E59T, T78S, Q82H, S85R, A97S
VL: B18 VL with R24S, Q38R, N54H, R67G, S93D, D94T
B19 was tested, and the Kd was 2.55 nM.

B20: KCD128 (antibody, V domains shown)
VH: QVQLQQPGAELVRPESSVKLSCKASGYTFTSYWMDWVMQRPGQGLEWIGNIYPSGSETHYNQKFKDKATLTVDKSSTTAYMQLSSLTFEDSAVYYCARSGFIGSRYLYYFDYWGQGTTLTVSS
VL: DIVMTQSHKFMSTSVGDRVTITCKASQDVSNAVAWYQLKPGQSPKLLIYSASYRYTGVPDRFTGSGSGTDFTFTISSVQAADLAVYYCQQHYITPYTFGGGTKLEIK
B20 showed a Kd of 14 nM.

B21: KCD132 (antibody, V domains shown)
VH: QVQLQQSGPELVKPGASVKISCKASGYSFTDYYINWVKQRPGQGLEWIGWIFPGSGSTYYNEKFKGKATLTVDKSSSTAYMLLSSLTSEDSAVYFCARTGYYSNLYAVDYWGQGTSVTVSS
VL: DIQMTQSPASLSVSVGETVTITCRASENIYSNLAWYQQKQGKSPQLLVYVATNLADGVPSRFSGSGSGTQYSLKINSLQSEDFGNYYCQHFWGTPYTFGGGTKLEMR
For B21, the Kd was 2.61 nM.

B22: KCD230 (antibody, V domains shown)
VH: QVQLQQPGTELVKPGASVKLPCKASGYTFTSYWMQWVKQRPGQGLEWIGEIDPSDTYINYNQKFKGKATLTVDTSSTTAYMQLSSLTSEDSAVYYCARYTTIMASDYWGQGTTLTVSS
VL: DIQMTQTTSSLSVSLGDRVTISCRASQDITNYLNWYQQKPDGTVKLLIYFTSRLHSGVPSRFSGSGSGTDYSLTISNLEPEDIATYYCQQYSKLPWTFGGGTKLEIK
For B22, the Kd was 2.48 nM.

B23: KCD137 (antibody, V domains shown)
VH: EVQLVESGGDLVKPGGSLKLSCAASGFTFSGYGMSWVRQIPDKRLEWVAISSRDNSFTYYPDSVKGRFTISRDNAKNTLYLQMSSLKSEDTALYFCTRHPYLPTGGYVMDYWGQGTSVTVSS
VL: DIVMTQSHKFMSTSVGDRVSITCKASQDVGTAVAWYQQRPGQSPKLLIYWASTRHTGVPDRFTGSGSGTDFTLTVSNVQSEDLADYFCQQYTSYPLTFGAGTKLELK
B23 gave a Kd of 0.504 nM.

B24: KCD070 (antibody, V domains shown)
VH: EIQLQQTGPELVKPGASVKISCKASGYSFTDYIILWVKQSHGKSLEWIGNINPYYDYTSYNLKFKGKATLTVDKSSSTAYMQLNSLTSEDSAVYYCARSDGYYGGDYWGQGTSVTVSS
VL: B23 VL with R39K, V75I, S76N, T92S, L96W, A100G, K103T, L106I
In the case of B24, the Kd is reported as 3.83 nM.

B25: KCD017 (antibody, V domains shown)
VH: DVQLQESGPDLVKPSQSLSLTCTVTDYSITSGYSWHWIRQFPGNKLEWLGYIHSSGNTNYNPSLKSRFSITRDTSKNQFFLQLNSVTSEDTATYYCALHYYGSSFGWYFDVWGAGTTVTVSS
VL: B23 VL with S20Y, R39T, P40S, V75L
Binder B25 has a Kd of 7.85 nM.

B26: KCD104 (antibody, V domains shown)
VH: QVQLQQPGAELVRPGTSVKLSCKASGYTFTSYWMHWVKQRPGQGLEWIGVIDPSDSYTYYNQKFKGKATLTVDTSSSTAYMQLSSLTSEDSAVYYCARNGYDGAMDYWGQGTSVTVSS
VL: EIQMTQTTSSLSASLGDRVTISCRASQDISNYLNWYQQKPDGTVKLLIYYPSRLHSGVPSRFSGSGSGTDYSLTISNLEQEDFATYFCQQGNTLPYTFGGGTKLEIK
Work on B26 yielded a Kd of 1.58 nM.
